First the molecules themselves.
B1: library; numbered along this chain (parent)
chain: MRKPRAAVGSGHRKQAASQEGRQKHAKNNSQAKPSACDGLARQPEEVVLQASVSSYHLFRDVAEVTAFRGSLLSWYDQEKRDLPWRRRAEDEMDLDRRAYAVWVSEVMLQQTQVATVINYYTGWMQKWPTLQDLASASLEEVNQLWAGLGYYSRGRRLQEGARKVVEELGGHMPRTAETLQQLLPGVGRYTAGAIASIAFGQATGVVDGNVARVLCRVRAIGADPSSTLVSQQLWGLAQQLVDPARPGDFNQAAMELGATVCTPQRPLCSQCPVESLCRARQRVEQEQLLASGSLSGSPDVEECAPNTGQCHLCLPPSEPWDQTLGVVNFPRKASRKPPREESSATCVLEQPGALGAQILLVQRPNSGLLAGLWEFPSVTWEPSEQLQRKALLQELQRWAGPLPATHLRHLGEVVHTFSHIKLTYQVYGLALEGQTPVTTVPPGARWLTQEEFHTAAVSTAMKKVFRVYQGQQPGTCMGSKRSQVSSPCSRKKPRMGQQVLDNFFRSHISTDAHSLNSAAQ
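Note: cells sorted at 72 h after reporter transfection.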

Variants of B1 are the subject of the series. Nature of the series: 8OG:A repair function score (normalized; synonymous = 0, nonsense = -1) (normalized log-likelihood score); higher = more repair activity (WT-like). The note with it: with 8OG:A DNA repair reporter (GFP) in HEK-293 MUTYH KO cells. The gist of the method: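 Lentiviral MUTYH cDNA NNN codon-scan libraries were expressed in MUTYH knockout HEK-293 cells with 10 pg/ml doxycycline, and the cells received an 8OG:A GFP repair reporter together with mCherry. At 72 h, viable mCherry+ cells went into GFP+ (repair) or GFP− bins, three replicates per tile, before tile amplicons were sequenced. A repair function score was then built from per-tile Rosace fitness scores, anchored on the synonymous and nonsense distributions. Synonymous medians sat at 0 and nonsense at -1, and variants under 300 counts per million at the start were left out.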
MRKPRAAVGSGHRKQAASQEGRQKHAKNNSQAKPSACDGLARQPEEVVLQASVSSYHLFRDVAEVTAFRGSLLSWYDQEKRDLPWRRRAEDEMDLDRRAYAVWVSEVMLQQTQVATVINYYTGWMQKWPTLQDLASASLEEVNQLWAGLGYYSRGRRLQEGARKVVEELGGHMPRTAETLQQLLPGVGRYTAGAIASIAFGQATGVVDGNVARVLCRVRAIGADPSSTLVSQQLWGLAQQLVDPARPGDFNQAAMELGATVCTPQRPLCSQCPVESLCRARQRVEQEQLLASGSLSGSPDVEECAPNTGQCHLCLPPSEPWDQTLGVVNFPRKASRKPPREESSATCVLEQPGALGAQILLVQRPNSGLLAGLWEFPSVTWEPSEQLQRKALLQELQRWAGPLPATHLRHLGEVVHTFSHIKLTYQVYGLALEGQTPVTTVPPGARWLTQEEFHTAAVSTAMKKVFRVYQGQQPGTCMLSKRSQVSSPCSRKKPRMGQQVLDNFFRSHISTDAHSLNSAAQ [G479L]: the “8OG:A repair function score” value was determined as 0.00935. As for MRKPRAAVGSGHRKQAASQEGRQKHAKNNSQAKPSACDGLARQPEEVVLQASVSSYHLFRDVAEVTAFRGSLLSWYDQEKRDLPWRRRAEDEMDLDRRAYAVWVSEVMLQQTQVATVINYYTGWMQKWPTLQDLASASLEEVNQLWAGLGYYSRGRRLQEGARKVVEELGGHMPRTAETLQQLLPGVGRYTAGAIASIAFGQATGVVDGNVARVLCRVRAIGADPSSTLVSQQLWGLAQQLVDPARPGDFNQAAMELGATVCTPQRPLCSQCPVESLCRARQRVEQEQLLASGSLSGSPDVEECAPNTGQCHLCLPPSEPWDQTLGVVNFPRKASRKPPREESSATCVLEQPGALGAQILLVQRPNSGLLAGLWEFPSVTWEPSEQLQRKALLQELQRWAGPLPATHLRHLGEVVHTFSHIKLTYQVYGLALEGQTPVTTVPPGARWLTQEEFHTAAVSTAMKKVFRVYQGQQPGTCMISKRSQVSSPCSRKKPRMGQQVLDNFFRSHISTDAHSLNSAAQ [G479I], the figure is -0.00859.

Turning to MRKPRAAVGSGHRKQAASQEGRQKHAKNNSQAKPSACDGLARQPEEVVLQASVSSYHLFRDVAEVTAFRGSLLSWYDQEKRDLPWRRRAEDEMDLDRRAYAVWVSEVMLQQTQVATVINYYTGWMQKWPTLQDLASASLEEVNQLWAGLGYYSRGRRLQEGARKVVEELGGHMPRTAETLQQLLPGVGRYTAGAIASIAFGQATGVVDGNVARVLCRVRAIGADPSSTLVSQQLWGLAQQLVDPARPGDFNQAAMELGATVCTPQRPLCSQCPVESLCRARQRVEQEQLLASGSLSGSPDVEECAPNTGQCHLCLPPSEPWDQTLGVVNFPRKASRKPPREESSATCVLEQPGALGAQILLVQRPNSGLLAGLWEFPSVTWEPSEQLQRKALLQELQRWAGPLPATHLRHLGEVVHTFSHIKLTYQVYGLALEGQTPVTTVPPGARWLTQEEFHTAAVSTAMKKVFRVYQGQQPGTCMKSKRSQVSSPCSRKKPRMGQQVLDNFFRSHISTDAHSLNSAAQ [G479K], the “8OG:A repair function score” value was 0.00166. As for MRKPRAAVGSGHRKQAASQEGRQKHAKNNSQAKPSACDGLARQPEEVVLQASVSSYHLFRDVAEVTAFRGSLLSWYDQEKRDLPWRRRAEDEMDLDRRAYAVWVSEVMLQQTQVATVINYYTGWMQKWPTLQDLASASLEEVNQLWAGLGYYSRGRRLQEGARKVVEELGGHMPRTAETLQQLLPGVGRYTAGAIASIAFGQATGVVDGNVARVLCRVRAIGADPSSTLVSQQLWGLAQQLVDPARPGDFNQAAMELGATVCTPQRPLCSQCPVESLCRARQRVEQEQLLASGSLSGSPDVEECAPNTGQCHLCLPPSEPWDQTLGVVNFPRKASRKPPREESSATCVLEQPGALGAQILLVQRPNSGLLAGLWEFPSVTWEPSEQLQRKALLQELQRWAGPLPATHLRHLGEVVHTFSHIKLTYQVYGLALEGQTPVTTVPPGARWLTQEEFHTAAVSTAMKKVFRVYQGQQPGTCMPSKRSQVSSPCSRKKPRMGQQVLDNFFRSHISTDAHSLNSAAQ [G479P], the figure is 0.0129; as for MRKPRAAVGSGHRKQAASQEGRQKHAKNNSQAKPSACDGLARQPEEVVLQASVSSYHLFRDVAEVTAFRGSLLSWYDQEKRDLPWRRRAEDEMDLDRRAYAVWVSEVMLQQTQVATVINYYTGWMQKWPTLQDLASASLEEVNQLWAGLGYYSRGRRLQEGARKVVEELGGHMPRTAETLQQLLPGVGRYTAGAIASIAFGQATGVVDGNVARVLCRVRAIGADPSSTLVSQQLWGLAQQLVDPARPGDFNQAAMELGATVCTPQRPLCSQCPVESLCRARQRVEQEQLLASGSLSGSPDVEECAPNTGQCHLCLPPSEPWDQTLGVVNFPRKASRKPPREESSATCVLEQPGALGAQILLVQRPNSGLLAGLWEFPSVTWEPSEQLQRKALLQELQRWAGPLPATHLRHLGEVVHTFSHIKLTYQVYGLALEGQTPVTTVPPGARWLTQEEFHTAAVSTAMKKVFRVYQGQQPGTCMFSKRSQVSSPCSRKKPRMGQQVLDNFFRSHISTDAHSLNSAAQ [G479F], -0.00391; as for MRKPRAAVGSGHRKQAASQEGRQKHAKNNSQAKPSACDGLARQPEEVVLQASVSSYHLFRDVAEVTAFRGSLLSWYDQEKRDLPWRRRAEDEMDLDRRAYAVWVSEVMLQQTQVATVINYYTGWMQKWPTLQDLASASLEEVNQLWAGLGYYSRGRRLQEGARKVVEELGGHMPRTAETLQQLLPGVGRYTAGAIASIAFGQATGVVDGNVARVLCRVRAIGADPSSTLVSQQLWGLAQQLVDPARPGDFNQAAMELGATVCTPQRPLCSQCPVESLCRARQRVEQEQLLASGSLSGSPDVEECAPNTGQCHLCLPPSEPWDQTLGVVNFPRKASRKPPREESSATCVLEQPGALGAQILLVQRPNSGLLAGLWEFPSVTWEPSEQLQRKALLQELQRWAGPLPATHLRHLGEVVHTFSHIKLTYQVYGLALEGQTPVTTVPPGARWLTQEEFHTAAVSTAMKKVFRVYQGQQPGTCMQSKRSQVSSPCSRKKPRMGQQVLDNFFRSHISTDAHSLNSAAQ [G479Q], 0.0264.

The values above are taken from the supplement of paper PMC11908140.
